From patent publication EP4671273A1 (Anaveon AG, dated 2025)
Residue numbers refer to the chain shown, from its start.

B1: ZAP122 (antibody, human IgG1, V domains shown)
VH: QVQLQESGPGLVKPSETLSLTCTVSGGSISSDFWGWIRQPPGKGLEWIGYISSRGSTNYNPSLKRRVTISVDTSRNQFSLKLSSVTAADTAVYYCARSAGVTDFDFWGQGTLVTVSS
VL: DIQMTQSPSSVSASVGDRVTITCRASQGISSWLAWYQHKPGKAPKLLIYVASSLQSGVPSRFSGSGSGTDFTLTISSLQPEDFATYYCQQANSFPLTFGGGTKVEIK
B2: MIZ926 (antibody, human IgG1, V domains shown)
VH: EVQLVESGGGSVKPGGSLKLSCAASGLTFSHYYMYWVRQTPEKRLEWVAIISDGGDYTHYSDSVKGRFTISRDNAKNNLYLQMSSLQSEDTAMYYCAGDYGYGYEGWFAYWGQGTLVTVST
VL: DIVMTQSQKFMSTSVGDRVSVTCKASQNVDTYVAWYQQKPGQSPKALIYSTSYRYSGVPDRFTGSGSGTDFTLTISNVQSEDLAEYFCQQYNSYPWTFGGGTKLEIK
B3: LKK631 (antibody, human IgG1, V domains shown)
VH: EVQLQQFGAEVVKPGASVKMSCKASGYTFTDYNMNWVKQSHEKSLEWIGDIHPKFHSTNYNQKFKGKATLTIDTSSSTAYMELRNLTSEDTAVYYCARVGNYVYFVMDYWGQGTSVTVSS
VL: SIVMTQTPKFLLVSAGDRVTITCKASQSVSNDVAWYQQKPGQSPKLLIYYASNRYTGVPDRFSGSGYGTDFTFTISTVQAEDLAVYFCQQDYTSPWTFGGGTKLEIK
B4: XVT458-z2-m6 (antibody, human IgG1, V domains shown)
VH: VQLVQSGAEVKKPGASVKVSCKASGYTFTNFYIHWVRQAPGQGLEWMGSIYPNYGITAYNQKFKDRVTMTVDTSTSTAYMELRSLRSDDTAVYYCARGYSYAMDYWGQGTTVTVSS
VL: DIQMTQSPSSVSASVGDRVTITCSASQGISGDLNWYQQKPGKAPKLLIYHTSQLHSDVPSRFSGSGSGTDFTLTISSLQPEDFATYYCQGYSKDLLTFGGGTKLEIK
notes: human IgG1; also called anti-PD-1 antibody clone XVT458-z2-m6
B5: DKR699 (antibody, human IgG1, V domains shown)
VH: B4 VH with I56D
VL: B4 VL
notes: human IgG1
B6: ACH836 (antibody, human IgG1, V domains shown)
VH: B4 VH
VL: B4 VL with I29A
notes: human IgG1
B7: BBJ602 (antibody, human IgG1, V domains shown)
VH: B4 VH with A102G
VL: B4 VL
notes: human IgG1
B8: ICW519 (antibody, human IgG1, V domains shown)
VH: B4 VH with K64Q
VL: B4 VL
notes: human IgG1
B9: ZAP122m27 Fab (Fab, V domains shown)
VH: B1 VH with F106A
VL: B1 VL
notes: Fab
B10: ZAP122m24 Fab (Fab, V domains shown)
VH: B1 VH with D103A
VL: B1 VL
notes: Fab
B11: ZAP122m26 Fab (Fab, V domains shown)
VH: B1 VH with D105A
VL: B1 VL
notes: Fab
B12: ZAP122m22 Fab (Fab, V domains shown)
VH: B1 VH with V101A
VL: B1 VL
notes: Fab
B13: ZAP122p1 Fab (Fab, V domains shown)
VH: B1 VH
VL: B1 VL with N92Q
notes: Fab
B14: ZAP122m23 Fab (Fab, V domains shown)
VH: B1 VH with T102A
VL: B1 VL
notes: Fab
B15: ZAP122m25 Fab (Fab, V domains shown)
VH: B1 VH with F104A
VL: B1 VL
notes: Fab
B16: ZAP122m21 Fab (Fab, V domains shown)
VH: B1 VH with G100A
VL: B1 VL
notes: Fab
B17: ZAP122p2 Fab (Fab, V domains shown)
VH: B1 VH
VL: B1 VL with N92S
notes: Fab

What follows are binders tested against recombinant human IL-21 (rhIL-21) (human, UniProt Q9HBE4 30-162, limits assumed) (assay: cell-based or functional assay).
Chain of recombinant human IL-21 (rhIL-21) (Q9HBE4 30-162 limits assumed): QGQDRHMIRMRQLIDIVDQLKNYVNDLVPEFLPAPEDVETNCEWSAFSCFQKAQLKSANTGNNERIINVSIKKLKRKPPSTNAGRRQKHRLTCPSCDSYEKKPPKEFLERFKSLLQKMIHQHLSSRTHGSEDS

% pSTAT3+ Jurkat cells, 0.1 nM rhIL-21 + 0 nM antibody [%] | % pSTAT3+ Jurkat cells, 0.1 nM rhIL-21 + 0.1012 nM antibody [%] | % pSTAT3+ Jurkat cells, 0.1 nM rhIL-21 + 0.1602 nM antibody [%] | % pSTAT3+ Jurkat cells, 0.1 nM rhIL-21 + 0.2536 nM antibody [%] | % pSTAT3+ Jurkat cells, 0.1 nM rhIL-21 + 0.4015 nM antibody [%] | % pSTAT3+ Jurkat cells, 0.1 nM rhIL-21 + 0.6355 nM antibody [%] | % pSTAT3+ Jurkat cells, 0.1 nM rhIL-21 + 1.006 nM antibody [%] | % pSTAT3+ Jurkat cells, 0.1 nM rhIL-21 + 1.5925 nM antibody [%] | % pSTAT3+ Jurkat cells, 0.1 nM rhIL-21 + 2.5209 nM antibody [%] | % pSTAT3+ Jurkat cells, 0.1 nM rhIL-21 + 3.9906 nM antibody [%] | Binder
82 | 33.3 | 33.2 | 18.2 | 22.8 | 33 | 10.8 | 9.01 | 6.78 | 5.32 | B1
82.5 | 75.1 | 72.4 | 70.7 | 69.9 | 68.5 | 65.3 | 64.8 | 64.5 | 61.8 | B2
82.1 | 81 | 72.4 | 71.4 | 71.5 | 65.6 | 69.5 | 58.7 | 55.1 | 42 | B3

Same assay, conditions: not given

% pSTAT3+ Jurkat cells, 0.1 nM rhIL-21 + 6.3171 nM antibody [%] | % pSTAT3+ Jurkat cells, 0.1 nM rhIL-21 + 10 nM antibody [%] | Binder
8.64 | 6.63 | B1
57.5 | 57.5 | B2
44.5 | 41.1 | B3

These binders were tested against T1, human PD-1 (#PD1-H82E4, AcroBiosystems) (human, UniProt Q15116 25-167) (assay: SPR, PD-1 on captured IgG1).
T1 construct: bought
T1 sequence (Q15116 25-167 limits assumed): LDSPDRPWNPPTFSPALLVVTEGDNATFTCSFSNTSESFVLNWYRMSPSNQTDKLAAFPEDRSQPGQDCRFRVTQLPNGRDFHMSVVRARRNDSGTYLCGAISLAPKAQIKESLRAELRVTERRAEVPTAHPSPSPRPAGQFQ

Kd [pM] | koff [s⁻¹] | kon [M⁻¹ s⁻¹] | Binder
522 | 0.000174 | 333000 | B4
606 | 0.000121 | 200000 | B5
342 | 0.000117 | 344000 | B6
18100 | 0.0278 | 1.54e+06 | B7
511 | 0.000187 | 365000 | B8

What follows are binders tested against T2, cynomolgus PD-1 (#PD1-C52H5, AcroBiosystems) (cynomolgus monkey, UniProt B0LAJ3 25-170) (assay: SPR, PD-1 on captured IgG1).
T2 construct: bought; also called cynomolgus monkey PD-1; not shown: the vendor's tag on the recombinant protein (AcroBiosystems #PD1-C52H5)
T2 sequence (B0LAJ3 entry or part of it limits assumed, form in doubt): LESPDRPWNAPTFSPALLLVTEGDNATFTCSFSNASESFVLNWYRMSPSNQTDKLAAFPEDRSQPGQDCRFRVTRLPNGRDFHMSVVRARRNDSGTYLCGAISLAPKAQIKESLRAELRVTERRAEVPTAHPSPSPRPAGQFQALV

Kd [pM] | koff [s⁻¹] | kon [M⁻¹ s⁻¹] | Binder
306 | 0.000153 | 499000 | B4
860 | 0.000203 | 236000 | B5
205 | 0.000101 | 493000 | B6
8530 | 3.15 | 3.69e+08 | B7
296 | 0.000176 | 592000 | B8

Each binder was assayed against T3, Recombinant hIL-21-Fc (AcroBiosystems) (human, UniProt Q9HBE4 30-162) (assay: SPR, Fab on captured rhIL-21-Fc).
T3 construct: bought; also called rhIL-21; not shown: Fc of the bought reagent, not described
T3 sequence (Q9HBE4 30-162): as the sequence (Q9HBE4 30-162 limits assumed) above

Kd [pM] | koff [s⁻¹] | kon [M⁻¹ s⁻¹] | binding result | Binder
< 24.2 | < 1e-05 | 414000 |  | B9
 |  |  | no binding | B10
3010 | 0.000701 | 233000 |  | B11
8730 | 0.0034 | 389000 |  | B12
38.6 | 1.38e-05 | 357000 |  | B13
137 | 3.29e-05 | 240000 |  | B14
5600 | 0.00059 | 105000 |  | B15
2190 | 0.0011 | 505000 |  | B16
32.8 | 1.14e-05 | 348000 |  | B17
